In patent US20100278801A1 (published 2010):
Each block holds one binder with its values, some of them ahead of it.

Columns and labels:
RB200 [1] = molecular target: T1, RB200 (human, UniProt P00533 25-645; P21860 20-643); assay: displacement of Eu-EGF from immobilised RB200 by unlabeled HB-EGF
T1 construct: extracellular domain; Purified over Ni-Sepharose, so a His tag is likely on one chain, but none is described; also called parent heterodimer RB200; EGFR/HER3 heterodimer
Experimental: (§1) Plates were incubated at RT for 2 hrs and then rinsed 3 times with DELFIA wash buffer. […] The plates were incubated at RT for 2 hrs followed by three quick rinse with ice-cold Delfia wash buffer containing0.02% Tween-20. To quantify bound Eu-ligands 130 μl/well of Delfia enhancement solution was added and the plates were read on a fluorescence plate reader (Envision, model 2100, PerkinElmer).

RB242 = molecular target: T2, RB242 (human, UniProt P00533 25-645; P21860 20-643); assay: displacement of Eu-EGF from immobilised RB242 by unlabeled HB-EGF
T2 construct: extracellular domain; purified to about 95% homogeneity; also called optimized hermodulin variant RB242
Experimental: as §1

RB200 [2] = molecular target: T1, RB200; assay: Eu-NRG1-β saturation binding (DELFIA), purified heterodimer immobilised on anti-human Fc plate
Experimental: as §1

HER3:Fc mutant D343L = molecular target: T3, HER3:Fc mutant D343L (human, UniProt P21860 20-643); assay: HER3:Fc mutant ligand binding screen
T3 construct: extracellular domain

HER3:Fc mutant Y436L = molecular target: T4, HER3:Fc mutant Y436L (human, UniProt P21860 20-643); assay: HER3:Fc mutant ligand binding screen
T4 construct: extracellular domain

HER3:Fc mutant A439D = molecular target: T5, HER3:Fc mutant A439D (human, UniProt P21860 20-643); assay: HER3:Fc mutant ligand binding screen
T5 construct: extracellular domain

HER3:Fc mutant D343H = molecular target: T6, HER3:Fc mutant D343H (human, UniProt P21860 20-643); assay: HER3:Fc mutant ligand binding screen
T6 construct: extracellular domain

HER3:Fc mutant F96L = molecular target: T7, HER3:Fc mutant F96L (human, UniProt P21860 20-643); assay: HER3:Fc mutant ligand binding screen
T7 construct: extracellular domain

HER3:Fc mutant S18T = molecular target: T8, HER3:Fc mutant S18T (human, UniProt P21860 20-643); assay: HER3:Fc mutant ligand binding screen
T8 construct: extracellular domain

HER3:Fc mutant V19Q = molecular target: T9, HER3:Fc mutant V19Q (human, UniProt P21860 20-643); assay: HER3:Fc mutant ligand binding screen
T9 construct: extracellular domain

HER3:Fc mutant C481R = molecular target: T10, HER3:Fc mutant C481R (human, UniProt P21860 20-643); assay: HER3:Fc mutant ligand binding screen
T10 construct: extracellular domain

HER3:Fc mutant L48Y = molecular target: T11, HER3:Fc mutant L48Y (human, UniProt P21860 20-643); assay: HER3:Fc mutant ligand binding screen
T11 construct: extracellular domain

HER3Y246A:Fc = molecular target: T12, HER3Y246A:Fc (human, UniProt P21860 20-643); assay: HER3:Fc mutant ligand binding screen
T12 construct: extracellular domain; Screened as an Fc fusion homodimer in conditioned medium

HER3:Fc mutant D325N = molecular target: T13, HER3:Fc mutant D325N (human, UniProt P21860 20-643); assay: HER3:Fc mutant ligand binding screen
T13 construct: extracellular domain

HER3:Fc mutant D343I = molecular target: T14, HER3:Fc mutant D343I (human, UniProt P21860 20-643); assay: HER3:Fc mutant ligand binding screen
T14 construct: extracellular domain

HER3:Fc mutant D343F = molecular target: T15, HER3:Fc mutant D343F (human, UniProt P21860 20-643); assay: HER3:Fc mutant ligand binding screen
T15 construct: extracellular domain

HER3:Fc mutant K415S = molecular target: T16, HER3:Fc mutant K415S (human, UniProt P21860 20-643); assay: HER3:Fc mutant ligand binding screen
T16 construct: extracellular domain

HER3:Fc mutant L102S = molecular target: T17, HER3:Fc mutant L102S (human, UniProt P21860 20-643); assay: HER3:Fc mutant ligand binding screen
T17 construct: extracellular domain

HER3:Fc mutant H565E = molecular target: T18, HER3:Fc mutant H565E (human, UniProt P21860 20-643); assay: HER3:Fc mutant ligand binding screen
T18 construct: extracellular domain

HER3:Fc mutant G563Q = molecular target: T19, HER3:Fc mutant G563Q (human, UniProt P21860 20-643); assay: HER3:Fc mutant ligand binding screen
T19 construct: extracellular domain

HER3:Fc mutant N103K = molecular target: T20, HER3:Fc mutant N103K (human, UniProt P21860 20-643); assay: HER3:Fc mutant ligand binding screen
T20 construct: extracellular domain

HER3:Fc mutant S438T = molecular target: T21, HER3:Fc mutant S438T (human, UniProt P21860 20-643); assay: HER3:Fc mutant ligand binding screen
T21 construct: extracellular domain

RB200 [3] = molecular target: T1, RB200; assay: 125I-NRG1-β saturation binding, heterodimer immobilised on anti-Fc coated plate

Ki (RB200 [1]): 20.1 nM
Ki (RB242): 1.3 nM
B1: HB-EGF (ligand, UniProt Q99075 63-148, looked up)
chain: DLQEADLDLLRVTLSSKPQALATPNKEEHGKRKKKGKGLGKKRDPCLRKYKDFCIHGECKYVKELRAPSCICHPGYHGERCHGLSL

Kd (RB200 [2]): 3.1 nM
binding result (HER3:Fc mutant D343L): no binding
binding result (HER3:Fc mutant Y436L): no binding
binding result (HER3:Fc mutant A439D): no binding
binding result (HER3:Fc mutant D343H): no binding
binding result (HER3:Fc mutant F96L): no binding
binding result (HER3:Fc mutant S18T): no binding
binding result (HER3:Fc mutant V19Q): no binding
binding result (HER3:Fc mutant C481R): no binding
binding result (HER3:Fc mutant L48Y): no binding
binding result (HER3Y246A:Fc): binds
binding result (HER3:Fc mutant D325N): no binding
binding result (HER3:Fc mutant D343I): no binding
binding result (HER3:Fc mutant D343F): no binding
binding result (HER3:Fc mutant K415S): no binding
binding result (HER3:Fc mutant L102S): no binding
binding result (HER3:Fc mutant H565E): no binding
binding result (HER3:Fc mutant G563Q): no binding
binding result (HER3:Fc mutant N103K): no binding
binding result (HER3:Fc mutant S438T): no binding
Kd (RB200 [3]): 12.3 nM
B2: NRG1-β (ligand, UniProt Q02297-6 177-241, looked up)
chain: SHLVKCAEKEKTFCVNGGECFMVKDLSNPSRYLCKCPNEFTGDRCQNYVMASFYKHLGIEFMEAE
notes: also called NRG1β1; NRGβ1
